Reference: US20230357364A1 (INTERNATIONAL AIDS VACCINE INITIATIVE, published 2023)
Where two headings read alike, the source gives them in different places.

How the values were obtained:
SARS-CoV-2 RBD (RBD-2) [1] = molecular target: SARS-CoV-2 RBD (RBD-2) (SARS-CoV-2); assay: ELISA
SARS-CoV-1 RBD (RBD-1) = SARS-CoV-1 RBD (RBD-1) (SARS-CoV-1); assay: ELISA
SARS-CoV-2 RBD (RBD-2) [2] = molecular target: SARS-CoV-2 RBD (RBD-2) (SARS-CoV-2); assay: SPR, Fc-captured IgG
[3] = molecular target: T1, SARS-CoV-2 spike on pseudovirus or live virus (USA-WA1/2020, WT) (SARS-CoV-2, UniProt P0DTC2 14-1273); assay: cell-based or functional assay
[4] = molecular target: T2, SARS-CoV-1 spike on pseudovirus (SARS-CoV-1, UniProt P59594 14-1255); assay: cell-based or functional assay
[5] = molecular target: T1, SARS-CoV-2 spike on pseudovirus or live …; assay: cell-based or functional assay; remark: listed apart in the source
[6] = molecular target: T2, SARS-CoV-1 spike on pseudovirus; assay: cell-based or functional assay; remark: listed apart in the source
SARS-CoV-2 RBD (RBD-2) [7] = molecular target: SARS-CoV-2 RBD (RBD-2) (SARS-CoV-2); assay: flow, HeLa-ACE2, mAb:RBD=2:1
SARS-CoV-2 RBD (RBD-2) [8] = molecular target: SARS-CoV-2 RBD (RBD-2) (SARS-CoV-2); assay: flow, HeLa-ACE2, mAb:RBD=4:1
SARS-CoV-2 RBD (RBD-2) [9] = molecular target: SARS-CoV-2 RBD (RBD-2) (SARS-CoV-2); assay: SPR
[10] = molecular target: T1, SARS-CoV-2 spike on pseudovirus or live …; assay: cell-based or functional assay; remark: listed apart in the source
[11] = molecular target: T1, SARS-CoV-2 spike on pseudovirus or live …; assay: cell-based or functional assay; remark: listed apart in the source
[12] = molecular target: T2, SARS-CoV-1 spike on pseudovirus; assay: cell-based or functional assay; remark: listed apart in the source

| Binder | EC50 (SARS-CoV-2 RBD (RBD-2) [1]) | EC50 (SARS-CoV-1 RBD (RBD-1)) | Kd (SARS-CoV-2 RBD (RBD-2) [2]) | koff (SARS-CoV-2 RBD (RBD-2) [2]) | kon (SARS-CoV-2 RBD (RBD-2) [2]) | PSV neutralization IC50 [3] | PSV neutralization IC50 [4] | Maximum Plateau of Neutralization [5] | PSV neutralization IC50 [5] | PSV neutralization IC50 [6] | % inhibition of RBD binding to hACE2 (SARS-CoV-2 RBD (RBD-2) [7]) | MFI (RBD binding to cell surface) (SARS-CoV-2 RBD (RBD-2) [7]) | % inhibition of RBD binding to hACE2 (SARS-CoV-2 RBD (RBD-2) [8]) | MFI (RBD binding to cell surface) (SARS-CoV-2 RBD (RBD-2) [8]) | Kd (SARS-CoV-2 RBD (RBD-2) [9]) | neutralization IC50 [10] | PSV in HeLa-ACE2 cells IC50 [11] | live virus IC50 (HeLa-ACE2) [11] | live virus IC50 (Vero) [11] | PSV in HeLa-ACE2 cells IC50 [12] |
| --- | --- | --- | --- | --- | --- | --- | --- | --- | --- | --- | --- | --- | --- | --- | --- | --- | --- | --- | --- | --- |
| L12.cP09D05 (antibody, V domains shown, human IgG1) VH: QVQLVESGGGLVKPGGSLRLSCAASGFTFNYYSMNWVRQAPGKGLEWISSISTSSSFVYYADSVKGRFTISRDNAKTSLYLQMNSLRAEDTAVYFCARGGYCSDGSCYVQDRLIYYYSGLDVWGQGTTVTVSS VL: not shown | 0.039 µg/mL | > 50 µg/mL | 36.2 nM | 0.0157 s⁻¹ | 435000 M⁻¹ s⁻¹ | 0.008 µg/mL | > 50 µg/mL | 100% | 0.023 µg/mL | > 50 µg/mL | 75.4% | 2810 | 80.6% | 2230 |  |  |  |  |  |  |
| L12.bP12H09 (antibody, V domains shown, human IgG1) VH: QVQLVQSGAEVKKPGASVKVSCKASGYIFSGYYTHWVRQAPGQGLEWMGWISPDSGGTNYAQKFQGRVTMTRDTSITTAYVELSGLRSDDTAVYYCARGPRYSGTYFDYWGQGTLVTVSS VL: QSALTQPASVSGSPGQSITISCTGTSSDVGGYNHVSWYQQHPGKAPKLMIYDVSNRPSGVSNRFSGSKSGNTASLTISGLQAEDEADYYCSSYTSSSAQLFGGGTKLTVL | 0.483 µg/mL | > 50 µg/mL | 155 nM | 0.12 s⁻¹ | 773000 M⁻¹ s⁻¹ | 0.062 µg/mL | > 50 µg/mL | 100% | 0.106 µg/mL | > 50 µg/mL | 41.6% | 6560 | 54.7% | 5100 |  |  |  |  |  |  |
| L12.cP08D10 (antibody, V domains shown, human IgG1) VH: EVQLVQSGAEVKKPGASVKVSCKASGYIFSGYYMHWVRQAPGQGLEWMGWISPDSGGTNYAQNFQGRVTMTRDTSISTGYMELSRLRSDDTAMYYCARGPRYSGTYFDYWGQGVLVTVSS VL: QSVLTQPASVSGSPGQSITISCTGTSSDVGGYNYVSWYQQHPGKVPKLMIYDVSNRPSGVSNRFSGSKSGNTASLTISGLQAEDEADYYCSSYTSSSAQVFGGGTKLTVL | > 50 µg/mL | > 50 µg/mL | > 500 nM | 0.312 s⁻¹ | 59400 M⁻¹ s⁻¹ | 4.3 µg/mL | > 50 µg/mL | 60% | 23.5 µg/mL | > 50 µg/mL | 6.1% | 10500 | 13.2% | 9710 |  |  |  |  |  |  |
| L12.cP09C07 (antibody, V domains shown, human IgG1) VH: QVQLVQSGAEVKKPGASVKVSCKASGYIYSGYFMHWVRQAPGQGLEWMGWISPDSGGANYAQTFQGRVTMTRDTSTTTAHMELSRLRSDDTAVYYCARGPRYSGTHFDYWGQGTLVTVSS VL: QSALTQPASVSGSPGQSLTISCTGTSSDVGGYNYVSWYQQHPDKAPKLMIYDVNNRPSGVSNRFSGSKSGSTASLTISGLQAEDEADYYCSSYAGSSTQVFGGGTKLIVL | 0.16 µg/mL | > 50 µg/mL | 87.9 nM | 0.0691 s⁻¹ | 786000 M⁻¹ s⁻¹ | 0.085 µg/mL | > 50 µg/mL | 95% |  | > 50 µg/mL | 54.5% | 5130 | 64.3% | 4040 |  |  |  |  |  |  |
| L12.bP11G07 (antibody, V domains shown, human IgG1) VH: QVQLVESGGGLIQPGGSLRLSCAASGFTVSSNYMSWVRQAPGKGLEWVSVIYSGGSTFYADSVKGRFTISRDNSKSTLYLQMNSLRVEDTAVYYCARDFGDFYFDYWGQGTLVTVSS VL: not shown | 0.025 µg/mL | > 50 µg/mL | 8.59 nM | 0.00342 s⁻¹ | 399000 M⁻¹ s⁻¹ | 0.013 µg/mL | > 50 µg/mL | 100% | 0.018 µg/mL | > 50 µg/mL | 86.8% | 1550 | 91.9% | 982 |  |  |  |  |  |  |
| L12.bP11A11 (antibody, V domains shown, human IgG1) VH: QVQLVQSGAEVKKPGASVKVSCKASGYTFTGYYMHWVRQAPGQGLEWMGWISPNSGGTNYAQKFQGWVTMTRDTSVSTAYMELSRLRFDDTAVYYCATESWVYGSGSYSSGAFDIWGQGTMVTVSS VL: QSVLTQPPSASGSPGQSVTISCTGTSSDVGGYDYVSWYQQHPGKAPKLMIYEVSKRPSGVPDRFSGSKSGNTASLTVPGLQAEDEADYYCTSYAGSNNFVFGGGTKLIVL | 1.9 µg/mL | > 50 µg/mL | 170 nM | 0.066 s⁻¹ | 388000 M⁻¹ s⁻¹ | 0.016 µg/mL | > 50 µg/mL | 100% | 0.11 µg/mL | > 50 µg/mL | 43.6% | 6330 | 53.9% | 5190 |  |  |  |  |  |  |
| L6.dP04A03 (antibody, V domains shown) VH: QVQLVQSGAEVKKPGSSVKVSCKASGGTFSSSAISWVRQAPGQGLEWMGGIIPILDITNYAQKFQGRVTITADKSTSTAFMELSSLRSEDTAVYYCALRNQWDLLVYWGQGTLVTVSS VL: not shown |  | 0.915 µg/mL |  |  |  |  |  | 100% | 0.039 µg/mL | 0.162 µg/mL |  |  |  |  | 257 nM | 0.168 µg/mL |  |  |  |  |
| L6.P4A3.1 (antibody, V domains shown) VH: QVQLVQSGAEVKKPGSSVKVSCKASGGIFSSSAISWVRQAPGQGLEWMGGIIPILDISNYAQKFQGRVTITADKSTSTAFMELSSLRSEDTAVYYCALTNQWDLLVYWGQGTLVTVSS VL: EIVLTQSPGTLSLSPGERATLSCRASQRVSSSYLAWYQQKPGQAPRLLIYGAESRATGIPDRFSGSGSGTDFTLTISRLEPEDFAVYYCQHYGSSLWTFGQGTKLEIK |  |  |  |  |  |  |  |  |  |  |  |  |  |  |  |  | 0.005 µg/mL | 0.008 µg/mL | 0.001 µg/mL | 0.049 µg/mL |
| L12.bP13A12 (antibody, V domains shown) VH: not shown VL: SYELTQSPSVSVAPGQTARITCGGNNIGSKSVHWYQRKPGQAPVLVVYDDSDRPSGIPERFSGSNSGNTATLTISRVEAGDEADYYCQVWDNNSDHLVFGGGTKLTVL | 0.019 µg/mL | > 50 µg/mL | 26 nM | 0.0115 s⁻¹ | 443000 M⁻¹ s⁻¹ | 0.051 µg/mL | > 50 µg/mL | 50% | > 50 µg/mL | > 50 µg/mL | -44.2% | 16100 | -46.7% | 16400 |  |  |  |  |  |  |
| L12.cP07E10 (antibody, V domains shown, human IgG1) VH: EVQLVESGGGLIQPGGSLRLSCAASGFTVSSNYMSWVRQAPGKGLEWVSVIYSGGSTYYADSVKGRFTISRDNSKNTLYLQMNSLRAEDTAVYYCARDPYGYSSIWDGQGGHWGQGTLVTVSS VL: DVVMTQSPSSLSASVGDRVTITCQASQDISNYLNWYQQKPGKAPKLLIYDASNFATGVPSRFSGTGSGTDFTFTISSLQPEDIATYYCQQYDNLPITFGQGTRLEIK | 0.058 µg/mL | > 50 µg/mL | 2.6 nM | 0.000364 s⁻¹ | 140000 M⁻¹ s⁻¹ | 0.029 µg/mL | > 50 µg/mL | 100% | 0.1 µg/mL | > 50 µg/mL | 98.6% | 237 | 99.1% | 178 |  |  |  |  |  |  |
| L6.dP03H10 (antibody, V domains shown) VH: QVQLVQSGAEVKKPGSSVKVSCKASGGTFSIYAITWVRQAPGQGLEWMGGIIPIIGTANYAQKFQGRVTITADKSTSTAYMELSSLRSEDTAVYYCARDFRYCSSTRCYFWFDPWGQGTLVTVSS VL: DIQMTQSPSSLSASVGDRVTITCRASQNISSYLNWYQQEAGKAPKLLIYAASSLQSGVPSRFSGSGSGTDFTLTISSLQPEDFATYYCQQSYSTPRTFGQGTKVDIK | 0.012 µg/mL | > 50 µg/mL |  |  |  |  |  | 100% | 0.001 µg/mL | > 50 µg/mL |  |  |  |  | 5.9 nM | 0.0017 µg/mL |  |  |  |  |
| L6.dP02E05 (antibody, V domains shown, human IgG1) VH: QVQLVQSGSELKKPGASVKVSCKASGYTFATYALNWVRQAPGQGLEWMGWVNTNTGSPTYAQGFTGRFVFSFDTSVSTAYLQIRTLKAEDTAVYYCAVYYYDSGSPGWFDPWGQGTLVTVSS VL: DIQLTQSPSSLSASVGDRVTITCRASQTASSYLNWYQQKPGKAPNLLIYAASSLQSGVPSRFSGSGSVTDFTLTISSLQPEDFATYYCQQSYSTPPTFGQGTKVDIK | 0.015 µg/mL | > 50 µg/mL |  |  |  |  |  | 100% | 0.002 µg/mL | > 50 µg/mL |  |  |  |  |  | 0.0075 µg/mL |  |  |  |  |
